# B1: Uncharacterized Nudix hydrolase YfcD wild type, P65556 (protein)
# chain: MEQRRLASTEWVDIVNEENEVIAQASREQMRAQCLRHRATYIVVHDGMGKILVQRRTETKDFLPGMLDATAGGVVQADEQLLESARREAEEELGIAGVPFAEHGQFYFEDKNCRVWGALFSCVSHGPFALQEDEVSEVCWLTPEEITARCDEFTPDSLKALALWMKRNAKNEAVETETAE
# B2: Elongation factor P-like protein wild type, P0A6N8 (protein)
# chain: MPRANEIKKGMVLNYNGKLLLVKDIDIQSPTARGAATLYKMRFSDVRTGLKVEERFKGDDIVDTVTLTRRYVDFSYVDGNEYVFMDKEDYTPYTFTKDQIEEELLFMPEGGMPDMQVLTWDGQLLALELPQTVDLEIVETAPGIKGASASARNKPATLSTGLVIQVPEYLSPGEKIRIHIEERRYMGRAD
# B3: FKBP-type peptidyl-prolyl cis-trans isomerase FkpA wild type, P45523 (protein)
# chain: MKSLFKVTLLATTMAVALHAPITFAAEAAKPATAADSKAAFKNDDQKSAYALGASLGRYMENSLKEQEKLGIKLDKDQLIAGVQDAFADKSKLSDQEIEQTLQAFEARVKSSAQAKMEKDAADNEAKGKEYREKFAKEKGVKTSSTGLVYQVVEAGKGEAPKDSDTVVVNYKGTLIDGKEFDNSYTRGEPLSFRLDGVIPGWTEGLKNIKKGGKIKLVIPPELAYGKAGVPGIPPNSTLVFDVELLDVKPAPKADAKPEADAKAADSAKK
# B4: Outer membrane porin C wild type, P06996 (protein)
# chain: MKVKVLSLLVPALLVAGAANAAEVYNKDGNKLDLYGKVDGLHYFSDNKDVDGDQTYMRLGFKGETQVTDQLTGYGQWEYQIQGNSAENENNSWTRVAFAGLKFQDVGSFDYGRNYGVVYDVTSWTDVLPEFGGDTYGSDNFMQQRGNGFATYRNTDFFGLVDGLNFAVQYQGKNGNPSGEGFTSGVTNNGRDALRQNGDGVGGSITYDYEGFGIGGAISSSKRTDAQNTAAYIGNGDRAETYTGGLKYDANNIYLAAQYTQTYNATRVGSLGWANKAQNFEAVAQYQFDFGLRPSLAYLQSKGKNLGRGYDDEDILKYVDVGATYYFNKNMSTYVDYKINLLDDNQFTRDAGINTDNIVALGLVYQF
# B5: dTDP-glucose 4,6-dehydratase 2 wild type, P27830 (protein)
# chain: MRKILITGGAGFIGSALVRYIINETSDAVVVVDKLTYAGNLMSLAPVAQSERFAFEKVDICDRAELARVFTEHQPDCVMHLAAESHVDRSIDGPAAFIETNIVGTYTLLEAARAYWNALTEDKKSAFRFHHISTDEVYGDLHSTDDFFTETTPYAPSSPYSASKASSDHLVRAWLRTYGLPTLITNCSNNYGPYHFPEKLIPLMILNALAGKSLPVYGNGQQIRDWLYVEDHARALYCVATTGKVGETYNIGGHNERKNLDVVETICELLEELAPNKPHGVAHYRDLITFVADRPGHDLRYAIDASKIARELGWLPQETFESGMRKTVQWYLANESWWKQVQDGSYQGERLGLKG
# B6: Nucleoid-associated protein YejK wild type, P33920 (protein)
# chain: MSLDINQIALHQLIKRDEQNLELVLRDSLLEPTETVVEMVAELHRVYSAKNKAYGLFSEESELAQTLRLQRQGEEDFLAFSRAATGRLRDELAKYPFADGGFVLFCHYRYLAVEYLLVAVLSNLSSMRVNENLDINPTHYLDINHADIVARIDLTEWETNPESTRYLTFLKGRVGRKVADFFMDFLGASEGLNAKAQNRGLLQAVDDFTAEAQLDKAERQNVRQQVYSYCNEQLQAGEEIELKSLSKELAGVSEVSFTEFAAEKGYELEESFPADRSTLRQLTKFAGSGGGLTINFDAMLLGERIFWDPATDTLTIKGTPPNLRDQLQRRTSGGN
# B7: Probable L,D-transpeptidase YnhG wild type, P76193 (protein)
# chain: MKRASLLTLTLIGAFSAIQAAWAVDYPLPPTGSRLVGQNQTYTVQEGDKNLQAIARRFDTAAMLILEANNTIAPVPKPGTTITIPSQLLLPDAPRQGIIVNLAELRLYYYPPGENIVQVYPIGIGLQGLETPVMETRVGQKIPNPTWTPTAGIRQRSLERGIKLPPVVPAGPNNPLGRYALRLAHGNGEYLIHGTSAPDSVGLRVSSGCIRMNAPDIKALFSSVRTGTPVKVINEPVKYSVEPNGMRYVEVHRPLSAEEQQNVQTMPYTLPAGFTQFKDNKAVDQKLVDKALYRRAGYPVSVSSGATPAASNAPSVESAQNGEPEQGNMLRVTQ
# B8: Mannosyl-3-phosphoglycerate phosphatase wild type, P76329 (protein)
# chain: MFSIQQPLLVFSDLDGTLLDSHSYDWQPAAPWLTRLREANVPVILCSSKTSAEMLYLQKTLGLQGLPLIAENGAVIQLAEQWQEIDGFPRIISGISHGEISLVLNTLREKEHFKFTTFDDVDDATIAEWTGLSRSQAALTQLHEASVTLIWRDSDERMAQFTARLNELGLQFMQGARFWHVLDASAGKDQAANWIIATYQQLSGKRPTTLGLGDGPNDAPLLEVMDYAVIVKGLNREGVHLHDEDPARVWRTQREGPEGWREGLDHFFSAR
# B9: Protein GrpE wild type, P09372 (protein)
# chain: MSSKEQKTPEGQAPEEIIMDQHEEIEAVEPEASAEQVDPRDEKVANLEAQLAEAQTRERDGILRVKAEMENLRRRTELDIEKAHKFALEKFINELLPVIDSLDRALEVADKANPDMSAMVEGIELTLKSMLDVVRKFGVEVIAETNVPLDPNVHQAIAMVESDDVAPGNVLGIMQKGYTLNGRTIRAAMVTVAKAKA
# B10: Formate-dependent phosphoribosylglycinamide formyltransferase wild type, P33221 (protein)
# chain: MTLLGTALRPAATRVMLLGSGELGKEVAIECQRLGVEVIAVDRYADAPAMHVAHRSHVINMLDGDALRRVVELEKPHYIVPEIEAIATDMLIQLEEEGLNVVPCARATKLTMNREGIRRLAAEELQLPTSTYRFADSESLFREAVADIGYPCIVKPVMSSSGKGQTFIRSAEQLAQAWKYAQQGGRAGAGRVIVEGVVKFDFEITLLTVSAVDGVHFCAPVGHRQEDGDYRESWQPQQMSPLALERAQEIARKVVLALGGYGLFGVELFVCGDEVIFSEVSPRPHDTGMVTLISQDLSEFALHVRAFLGLPVGGIRQYGPAASAVILPQLTSQNVTFDNVQNAVGADLQIRLFGKPEIDGSRRLGVALATAESVVDAIERAKHAAGQVKVQG
# B11: dTDP-4-dehydrorhamnose 3,5-epimerase wild type, P37745 (protein)
# chain: MNVIRTEIEDVLILEPRVFGDDRGFFYESFNQSAFEHILGYPVSFVQDNHSRSSKNVLRGLHFQRGEYAQDKLVRCTHGAVFDVAVDIRPNSVSFGKWVGVLLSADNKQQLWIPKGFAHGFLVLSDIAEFQYKTTNYYHPESDCGICWNDERIAIDWPQTSGLILSPKDERLFTLDELIRLKLIA
# B12: Glucokinase wild type, P0A6V8 (protein)
# chain: MTKYALVGDVGGTNARLALCDIASGEISQAKTYSGLDYPSLEAVIRVYLEEHKVEVKDGCIAIACPITGDWVAMTNHTWAFSIAEMKKNLGFSHLEIINDFTAVSMAIPMLKKEHLIQFGGAEPVEGKPIAVYGAGTGLGVAHLVHVDKRWVSLPGEGGHVDFAPNSEEEAIILEILRAEIGHVSAERVLSGPGLVNLYRAIVKADNRLPENLKPKDITERALADSCTDCRRALSLFCVIMGRFGGNLALNLGTFGGVFIAGGIVPRFLEFFKASGFRAAFEDKGRFKEYVHDIPVYLIVHDNPGLLGSGAHLRQTLGHIL
# B13: Phosphoribosylglycinamide formyltransferase wild type, P08179 (protein)
# chain: MNIVVLISGNGSNLQAIIDACKTNKIKGTVRAVFSNKADAFGLERARQAGIATHTLIASAFDSREAYDRELIHEIDMYAPDVVVLAGFMRILSPAFVSHYAGRLLNIHPSLLPKYPGLHTHRQALENGDEEHGTSVHFVTDELDGGPVILQAKVPVFAGDSEDDITARVQTQEHAIYPLVISWFADGRLKMHENAAWLDGQRLPPQGYAADE
# B14: dTDP-glucose 4,6-dehydratase 1 wild type, P37759 (protein)
# chain: MKILVTGGAGFIGSAVVRHIINNTQDSVVNVDKLTYAGNRESLADVSDSERYVFEHADICDAPAMARIFAQHQPDAVMHLAAESHVDRSITGPAAFIETNIVGTYVLLEAARNYWSALDSDKKNSFRFHHISTDEVYGDLPHPDEVNNTEELPLFTETTAYAPSSPYSASKASSDHLVRAWKRTYGLPTIVTNCSNNYGPYHFPEKLIPLVILNALEGKALPIYGKGDQIRDWLYVEDHARALYTVVTEGKAGETYNIGGHNEKKNIDVVLTICDLLDEIVPKEKSYREQITYVADRPGHDRRYAIDAEKIGRALGWKPQETFESGIRKTVEWYLSNTKWVDNVKSGAYQSWIEQNYEGRQ
# B15: Putative NAD(P)H nitroreductase YdjA wild type, P0ACY1 (protein)
# chain: MDALELLINRRSASRLAEPAPTGEQLQNILRAGMRAPDHKSMQPWHFFVIEGEGRERFSAVLEQGAIAAGSDDKAIDKARNAPFRAPLIITVVAKCEENHKVPRWEQEMSAGCAVMAMQMAAVAQGFGGIWRSGALTESPVVREAFGCREQDKIVGFLYLGTPQLKASTSINVPDPTPFVTYF
# B16: Phosphoribosylaminoimidazole-succinocarboxamide synthase wild type, P0A7D7 (protein)
# chain: MQKQAELYRGKAKTVYSTENPDLLVLEFRNDTSAGDGARIEQFDRKGMVNNKFNYFIMSKLAEAGIPTQMERLLSDTECLVKKLDMVPVECVVRNRAAGSLVKRLGIEEGIELNPPLFDLFLKNDAMHDPMVNESYCETFGWVSKENLARMKELTYKANDVLKKLFDDAGLILVDFKLEFGLYKGEVVLGDEFSPDGSRLWDKETLEKMDKDRFRQSLGGLIEAYEAVARRLGVQLD
# B17: GTPase ObgE/CgtA wild type, P42641 (protein)
# chain: MKFVDEASILVVAGDGGNGCVSFRREKYIPKGGPDGGDGGDGGDVWMEADENLNTLIDYRFEKSFRAERGQNGASRDCTGKRGKDVTIKVPVGTRVIDQGTGETMGDMTKHGQRLLVAKGGWHGLGNTRFKSSVNRTPRQKTNGTPGDKRELLLELMLLADVGMLGMPNAGKSTFIRAVSAAKPKVADYPFTTLVPSLGVVRMDNEKSFVVADIPGLIEGAAEGAGLGIRFLKHLERCRVLLHLIDIDPIDGTDPVENARIIISELEKYSQDLATKPRWLVFNKIDLLDKVEAEEKAKAIAEALGWEDKYYLISAASGLGVKDLCWDVMTFIIENPVVQAEEAKQPEKVEFMWDDYHRQQLEEIAEEDDEDWDDDWDEDDEEGVEFIYKR
# Conditions: Escherichia coli (strain K12); pH 7.5; Thermal; Intensity; HEPES 20mM; transition: 2; whole UniProt chain shown
row,Protein,Tm [°C]
1,B1,42.1
2,B2,43.5
3,B3,41.8
4,B4,43.5
5,B5,42.3
6,B6,42.6
7,B7,44.1
8,B8,43.9
9,B9,44
10,B10,43.4
11,B11,44.2
12,B12,44.4
13,B13,43.5
14,B14,44.3
15,B15,45.3
16,B16,43.1
17,B17,44.5
